Measurements: the domain aggregation screens of Martell et al. (2025)

Assay: soluble fraction after stress (log2 fold change); higher = more stays soluble; pooled small domains, quantitative proteomics
Settings: stress: 50 degC
Method in brief: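 Pooled custom libraries of small protein domains were each held under stress at 50°C. The read-out, high-throughput quantitative proteomics, tracked how much of each protein stayed soluble. This is reported as a base-two log fold change used to indicate aggregation propensity. Higher values mean more protein remains in solution.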

Sequence | soluble fraction (log2)
HMLKHNLLSELSRIEGVGAVKRKALMDKFGTVENIKRASEEELSEVAGIGPTLARTIKEQMNKDE | -0.184
HMGPEAFPVPYIVDIELDRAIYVIEQSGFIVGQKLEANDDNVPRGFVISQNPAAGTKLGPNSVVDLVISSG | -1.02
HMSNNILEISSNKKNMKIQENKNLVESYYSKTENLYSFKLVFKNKRDLDQFLKEVYEDDSTINYKTSS | -0.412
HMDFSVTIKGTSFPVMVSLKKMKQVRLKVFPSGEIKLSAPVGTPEKWIVEYLNDKMSWIEEKMDLFVQ | -0.787
HMIQSEQIPFSKFLKEVDSGRVVQVEIQGNNINGVLSDGSKFKTYSPNYPELVGKLSDKGVSIVASPV | 0.106
HMNEFSYLSELGSEKGDLIKGLQLVQSREGYVSDDAIRAISKHFSIAEAEVEGVLTFYAQFK | -0.572
HMSVKIELNENEQAIFTAVQKVNEAVLPELRAQFSDMSNKAWDNSVKMLTKNNLLKVSKEGEILYIRM | -0.567
HMRDLITYVVQINGKLRGKLEVAPDTDPEELKALALEVENVKRSLEGWVVKKVIVVPGKMVSIAAG | -0.193
HMQIEQVDYGTFMTMIDDKKIDKVEIKDNQILFIGKDDNKKYKTGIVQDPQLAERLHASGAVFSQDI | -0.136
HMNGYGALVRLGRSRGWVTVEEINDHLPESAVRTAENVQEITEALGRLSIKVFETRPDEDDLLIT | -0.0632
HMPSTKDGIKEFLSSGAMKGIGRKTASAIVSRFGIDTLKIIEQEPQRLTEVSGIGKKTAQRIAEAFGKH | -0.103
HMERLSVSMGDMVVFVRDAVEAFRGLVKEKGITLTFESKVEHFYMNYDHDKVYKVVNNLLSNAVKFT | -0.209
HMAPQSAAAILRYLSSGAIRGVGPATAQRIVERFGTDSLEIIQNRPKELAAINGISINKALSISEEYAKQY | -0.831
HMYMWQVEDLIRANGLDIERIKDSIIRPYELDEERKRELTQWYEDLIDMMRREGVAQSGHLQIN | -2.45
HMDTFEITVEESDIDKRIDLFLAGNLESFSRSYIQDLIKKGKATISGKPVKANYRLREGDSVVLSIPKPK | -0.227
HMSSESIIIKKLIEEFIHNENKYSPLSDEKLSYLLKNKGFSVARRTVAKYRDELGILSTRERKIKI | -0.745
HMLKLPVEYLNLKYQLMHATSLDKPNNLMKLDEKLGKIIDVYYDDLPVDEQRVVDILQSKLYSY | -0.996
HMAKIPASTVVEIDGAPVVVAVRVNARARSYRLSIPHSGGPLLTLPPHGKWAEAEAFLLRHHNWLAARLHR | -2.47
HMNKITIDQAKEIALNHAKLTAEQVSFIRTESEFDDGIEKYNIEFYYNNQKYDYDINAVNGQIIQYDLEG | -0.0582
HMTAQLSITLNGETRRAAAGSIADLVRSLELDPAKVAVERNGLIVPRSTLAEVALGDGDVLEIVHFV | -0.186
HMAEKVIVVADSITVGELAEKLNLPVTNLIGELFKNGIVSTINQRIDFETASIIVEELGLDVELERK | -0.0299
HMNTDEYEQKRGEILDAAQRLIYTKGYERMSIQDILDELKISKGAFYHYFDSKQSLLEALTARMMTE | -0.101
HMNTVSPAVSAQLRQELGGELNNANFQQLQQYLQAGQRDEAIVYLTSLGIESPRAVSIVNNAMDQIG | 0.124
HMHLNVYRDEDEAMLAFKDHLIGTHQPIRVRVEKALPDGTMGHKIVDTTIGRIVFNHNIPQD | -0.189
HMDIAYFSNAELNDAFIQFLNMRQEAGKQLNGYQIQILTEKLERVADTDEDRISAVKNAIAGGWSNFYPPK | -0.272

Sequence | soluble fraction (log2)
HMGTSGLTIPRFVSLASGTVHMRAGPGVRYPITWIYKRLGTPLMVMAEHEFWRKVRDAEGTEGWMHRSLLS | -0.0684
HMAEERVLSVPQSLAGERLDAALASLMPDYSRSRLASWIKEGLVTVDGAGAMPKQKLWGGETLRVQAQPT | 0.463
HMFDSYDIYDEAGNTVNTVKGKLSWGHLLEIYDRFDNHIGTVQERVLTFLPKFLMYINGQEIGEIR | -0.0596
HMNVLLGISELSHATGVTPAQLRYWVSQGYIKNYGSNKKNKFSLETVFMVRSIKIFQNQGYTLSASAKRAA | 0.0163
HMARDDVIRLVQLSLDHLPAKYADALEWKYVEGLSTKEIAARLELGSEAAESLLARARRAFKNDFQEIFES | -1.41
HMLDLPVKTINGKQYYYYTVKKGDTVYSLITRFGITRSDLVESNPAAADVLKTGDTLYFAVDKFG | -0.0825
HMASDYYTTTANLNLRSGAGTTYGSLIIIEKGDTVKLLENVNDHWVKIQYDDKIGYVAMSYLLPIE | -0.484
HMRDTDAEVTYKLNEPFKTMGSVSVEGKVLEFAGSKWFARAAEFASNTEVYPLAKNRVRLTFTFHGLTAP | 0.105
HMTSSQLNIEELERRMMMHLEQNGFITRSIYTNLTGRLKWKATEDLKIFVEKGLIRKMGRGNQMYYVKVE | -1.7
HMLDRNKLNELDAYIESFEDKPSHLIMILHRAQGLFGYLPKELQIYVAEKTGVPAAKVYGVVTFYSFFTMK | -1.4
HMQSMSADDWSEKARVLMSAGIIVMGQEAKEKILNLKSLVPLIEAASASNVSMIDSRTFDELLMIIP | -1.26
HMPREQQENVYLLEKAKRLYEEYLGDQRQTIGHALAQFERVLESQDPAAIRRAQKEFGEFLERYDG | 0.102
HMAHRYQQIADDLGRRVEAGEFAAGRLLPSEATLSGQYKASRVTVRKALEALRTDGLVESRQGFGWFVAAD | -0.379
HMNIGELINKKRTELGLTLEEVGNAVGVSKSTVKKWEDGFISNMRRDKISKLAKVLEMNPVSLITGE | 0.0389
HMEYSYKLIDLLVDRFSEEGVDPEEAREYINLFHRFSQGLDPDKRDITKYSWDELYRTVNDKKDS | 0.107
HMVDIGQSIRVELIREGKDSHQAVGYLRDGSMVVVNHGRKLIGSTVEVEITSIVPSSAGKVIFAEYLE | -0.378
HMEEVVIPDLAGLTEEEATKVLMAKELKLKVSGSQHSDIEKGLIISQDPPAGEKGAKNSQVAVVTSSG | 0.103
HMRPRWTEQEVERAKAIKMIYPNAYRLESSDVFVQVWSKEEILLAHVEVDMFPSLRPGQPVELDEIIG | 0.103
HMGGALSPDFGWLAMIDPDEGRAITLYDIASGEAIAVLDTHEARVAALAWSPDGTRLASGDQNGLIVQWEI | -0.432
HMDFYIVLGVDRAASVSDVKRAYRRLARKYHPDINPGDREAEAFFLRVTEAYETLIDPDRRQDYDVNG | -0.94
HMASIGVGTIVRVANAVNYNGVKVKAWFNDEGYEVTELSGDRAVLKHNGDLFDAFHVSDLEA | -1.29
HMETEQVEMIRVVGMHVDEAKKALLDLGLSPEIKYEESSSYDAGTVLRASVQDGLMIDKGTNIVLTVAEA | 0.121
HMNNYEGIVKSVSNSNVYIQVAGRTIGYTISPHTIIMVNGKNVPASELMPGQHVSYTNKGSKLSYININS | -0.103
HMKRLPFSFAKRFGVVVEDGEPPIVHHRDGASAETLLEVRRRLGQVFTLQRHDAEAFERLLTQAYQR | -0.383
HMELTDRQKQIIEIVKKQQPISGEKIASILGFARATLRPDFSLLTMSGILQAKPKVGYLINEE | -0.152

Sequence | soluble fraction (log2)
HMTKTRTEILEYLKQNWSVTVSASDIKKHLEEKEIKANTTTIYRYLDKLLAEHVIIKYADAGSERAVYQYS | -2.31
HMILPKFNQLLGQMGENIKLARKRRKLTAVQVSERAGIARSTLYLIEKGDASVSLGAYFNVLRVLG | -1.46
HMKHKYWEIKERIKKDILNEVYKKGESIPSERDLAGIYDVTRVTVQKAMAMLVQEGYIERIHGKGMFVLKN | -0.801
HMHSRTWTSADGVKTFEGELQSYDAASGKVSVILPNHKRITFKQEKLSADDIAWLEKNGNRP | 0.102
HMAVEQLKSQIGGFLKANREQSFSAQNMADGLRMNSAAGYQDVVNAMNALVRDGEAVEKDGQFSYNVN | 0.15
HMDKGEQILQQALDKLPPKQRQVFEMRYFDEMPYREIATITETSEGALKASYHHAVKKIQQYISHL | -0.397
HMTTTTTYITNTDAVNIRQQATTSSTSLGKLAKNTILSVKKKSGDWYQITYKKQTAYIHASLVDKKTAKVT | -0.556
HMRHKSNRRLTAAHQIEQQIQKLLMENTMEAKELKESLNFAAKDIDTVLSWLVDKDKVRINAINQYYWT | -0.767
HMNDRRQDVFELLKSSERPVSAADLAHKFGVTRQVIVADIALLRASDIDIVSTNRGYILKANL | -1.49
HMDNNNQAAFMGALNSLKEYAKVNGNIVTKQDVESYFKDLGLDDSKYQMITGYLLANDITVKG | 0.0282
HMDAYMGEAKDEETFAEEYLNDSGLLNEIPESVARYFDIVAYARDLLIGDFSLHDGHVFNMT | -0.0437
HMSDKTSLTDDDKALINSMLPDYDKYPSVAKLQAVEIAKSSSKMATLLMLDERYNETVSEALE | 0.0209
HMITPAGVPPALLPVFDQFTLPDGTLRRGAVAAALRALYGPDAPQSGKRYQMEYDRVMAWHSQYFTSLH | -0.34
HMGNTMIVILKHEARQEQIDRLKQFLLGMGLRIDESKGENSTILGLVGDTTRVDADLISSLDAVEAVRRV | -0.0449
HMPGIDDAAVEHAERVLAQHIGPMARLLVRRTVPRAANLFDLHRRLGALIPESEPRTAFLSAVVT | 0.0708
HMDGMNEELYQKFFALVGNPDEGKRISQAKAAQALGYSSAVVSAYKNRTYNGNIKAFEDAVQAWLKREERR | 0.000413
HMSLQEISDLISQAERADQEQLKEVLKQLHQVESGNQPMSKGFLSSALSTLNKYPALITSIGQLLFKLAT | 0.00954
HMQKAEQIGSLLREKRKSMGLTQDELAQQVEVRRQTLADLELGKNVGSHLLIKVMEHLGVGFDLL | -0.192
HMIIIPKKDYDVSQLDNLVSWLKDRGLEVHISRGENLTVIGLIGDTSKIDIDLIRSLDVVEEVKRIQ | -0.326
HMNDYNLTDREKEVLTFLFQGLEYKEIGMKMSVSPNTIRNHISNIYKKLHVTSKTQAIRVFLNN | -2.21
HMRIETLESLANRLAYKAYRTGRKVELEPMNPFERRVIHTALQNSKYATTESEGEDMNRHIVIVPKEGG | -0.0606
HMAFYQDIAVDLRKQIIDGVYPKNSRLPNQAELAKLYTTSRVTIQKALKILQIEGLIEGRQGSGSYVKGP | -1.42
HMNNIGENIKKYRTKQGLSQEDFAKKSGVKYTTLTKIESGVIKKPSVLVMAKIAKALGVNIEELI | -0.0879
HMQTLQTTSLRVSENQLFILDQQALPQEKRWLAADNVALLVDHIHTLRVRGAPLIGLSASLLLALLAGRLT | -0.0766
HMTTLLNHLKGTRLEAGLSQQALARLAGISRQAYSALESGSSNPSTEVALRLARALKTSVDHLFSLPE | -0.989
